Experimental data as given in US20140031525A1, “MUTANT G-PROTEIN COUPLED RECEPTOR PROTEINS AND METHODS FOR PRODUCING THEM” (Heptares Therapeutics Limited, priority 2011, published 2014).

Key:
[1] = Thermostability assay of detergent-solubilised receptor by [3H]-ZM241385 binding; assay type: physicochemical, human; details: in 0.1% decylmaltoside, 30 min heating
Experimental: FIG. 1: Thermostability of the adenosine A2A receptor alone, in combination with T4 lysozyme fusion or with thermostabilising mutations. Receptors were solubilised from transiently transfected cells using 0.025% DDM. Samples were heated at the specified temperature for 30 minutes, quenched on ice and the amount of receptor remaining was determined by a single-point binding assay using 100 nM [^3H]-ZM-241,385. Data is shown for the wild type A2a receptor (circles), A2A-T4L (squares), A2A-StaR1 (previously Rant21, upright triangles), A2A-T4 engineered to include the A2A-StaR1 mutations in combination with the T4L fusion (A54L^2.52/T88A^3.36/K122A^4.43 N239A^6.41) (inverted triangles) and vs A2a-StaR2 (diamonds).
Transfected HEK293T cells were resuspended in ice cold buffer [50 mM Tris pH7.4; 400 mM NaCl; 1% DDM and protease inhibitors (Complete, Roche)]. After incubation for 1 h at 4° C., samples were centrifuged (16,000×g, 20 min, 4° C.) and the supernatant was detergent exchanged into 0.1% decylmaltoside (DM) from Ni-NTA resin.
Thermostability was assessed by incubating with [^3H]-ZM241385 radioligand (100 nM) at increasing temperatures for 30 min followed by a 5 minutes incubation on ice. Receptor bound and free radioligand were separated by gel filtration as previously described'

G proteins = test: G protein activation by the engineered receptor; assay type: biochemical

G protein activation (G proteins): no longer activated G proteins
B1: A2A-StaR2: human adenosine A2A receptor with mutations A54L, T88A, K122A, V239A, R107A, L202A, L235A, S277A (protein, UniProt P29274 1-412, looked up, variant A54L T88A K122A V239A R107A L202A L235A S277A)
Adenosine receptor A2a: MPIMGSSVYITVELAIAVLAILGNVLVCWAVWLNSNLQNVTNYFVVSLAAADILVGVLAIPFAITISTGFCAACHGCLFIACFVLVLAQSSIFSLLAIAIDRYIAIAIPLRYNGLVTGTRAAGIIAICWVLSFAIGLTPMLGWNNCGQPKEGKNHSQGCGEGQVACLFEDVVPMNYMVYFNFFACVLVPLLLMLGVYLRIFAAARRQLKQMESQPLPGERARSTLQKEVHAAKSAAIIAGLFALCWLPLHIINCFTFFCPDCSHAPLWLMYLAIVLAHTNSVVNPFIYAYRIREFRQTFRKIIRSHVLRQQEPFKAAGTSARVLAAHGSDGEQVSLRLNGHPPGVWANGSAPHPERRPNGYALGLVSGGSAQESQGNTGLPDVELLSHELKGVCPEPPGLDDPLAQDGAGVS
apparent thermostability [1]: 47 °C
